Experiment [1] deals with GST-p300 (p300 CH1 domain, residues 330–420) (Homo sapiens, UniProt Q09472). Description: Fluorescence anisotropy direct titration of GFP-HIF-1α776–826 variants with GST-p300. Type of experiment: binding. The following applies: 50 nM GFP-HIF-1α776–826 variant, GST-p300 serial dilution, 25 mM Tris–HCl, 150 mM NaCl, 1 mM DTT, pH 7.4, 27 °C, 1:1 model, ± standard error of fitted value, technical triplicates. From the text:
To experimentally compare the predictions, we carried out an in vitro biophysical study of several HIF-1α sequence variants. We assessed predicted hot residues and their interactions with p300 using the NMR structure to visualize the structural basis behind the predictions (See ESI, ^† Fig. S2). These analyses helped refine a first series of alanine variants to prepare. […] HIF-1α776–826 sequence variants were recombinantly prepared based on the predictions to test their binding to the recombinantly prepared p300 (Fig. 2). Given the length of the peptide ([…]), this was considered advantageous as it obviates the need to chemically synthesise, label and purify multiple variants. As the C-TAD domain is unstructured in isolation it was recombinantly expressed as a fusion protein with GFP. The green-fluorescent protein (GFP) tag was used for fluorescence anisotropy (FA) experiments to determine the binding affinity of HIF-1α776–826 C-TAD variants to p300. As the CH1 domain of p300 is a small domain of 11 kDa it was recombinantly expressed as a fusion protein with GST to increase its size and thus the signal to noise in the FA experiments. We established an assay where the interaction between GFP-tagged wt HIF-1α776–826 and GST-tagged p300 was monitored by FA, using the fluorescence of GFP. GST dimerises with single digit nM Kd[61] (and in our hands exists as a dimer in size exclusion chromatography analyses, see ESI, ^† Fig. S15 for protein characterization data), thus two molecules of GFP-HIF-1α could bind to the GST-p300 dimer (Fig. 2a). We make the assumption that each p300 binding site behaves independently and analyse the binding isotherm using a 1 : 1 model.
(§1) Fig. 2 Biophysical analyses on the effects of HIF-1α sequence variant p300 binding affinity. (a) schematic depicting the equilibrium for interaction of GFP-HIF-1α776–826 variants and GST-p300 as studied by fluorescence anisotropy; (b) representative fluorescence anisotropy titration data for sAV and mAV GFP-HIF-1α776–826 peptides interacting with GST-p300 (25 mM Tris–HCl, 150 mM NaCl, 1 mM DTT, pH 7.4), error bars represent standard deviation of technical triplicates; (c) raw ITC data (upper) and fitted thermogram (lower) for the interaction of GFP-HIF-1α776–826 peptides with p300 (37 °C in 25 mM Tris–HCl, 150 mM NaCl, 1 mM DTT, pH 7.4) using 10 μM p300 in the cell and 100 μM GFP-HIF-1α776–826 variant in the syringe; error bars represent estimated integration errors (d) thermodynamic signatures for each interaction. […]
7.4 buffer or dialysed into 25 mM Tris, 150 mM NaCl, 1 mM DTT pH 7.4 buffer.
GSTp300 protein was serially diluted in buffer (25 mM Tris-HCl, 150 mM NaCl, 1mM DTT, pH 7.4) and GFP-HIF-1α (50nM final concentration) was added, the plates were read after 0 min, 60 min, 4 h and 24 h, and incubated at room temperature in between. Each experiment was run in triplicate and the fluorescence anisotropy measured using an EnVision 2103 MultiLabel plate reader (Perkin Elmer) with excitation at 480 nm and emission at 535 nm (30 nm bandwidths). The recorded temperature for all measurements was 27°C ± 1°C. In parallel, a control experiment was performed in which no GFP-HIF was added and the volume made up with additional buffer, this blank was deducted from the raw data for each of the three repeats.
The intensity was calculated for each point using eqn (1) and used to calculated anisotropy […]
using eqn (2). From a plot of anisotropy against GST-p300 concentration the minimum and maximum anisotropies were obtained using a logistic sigmoidal fit in OriginPro 8.6. This allowed the conversion to fraction bound (eqn (3)). The data were then fitted using eqn (4) in OriginPro 8.6 to determine the dissociation constant, Kd. […]
5 µl injections and 180 s spacing between injections, for 40 injections. Titrations were performed in 40 mM Na-phosphate, pH 7.5 100 mM NaCl, 1 mM DTT buffer except for GFP- […]

The target of experiment [2] is T1, p300 (CH1 domain, residues 330–420) (Homo sapiens, UniProt Q09472).
T1 construct: GST (N, cleaved yes); made in house; host or cells: E. coli BL21 pLysS (pGEX-4T1-p300)
Put plainly: ITC of GFP-HIF-1α776–826 variants binding to p300. The following applies: 37 °C, 25 mM Tris–HCl, 150 mM NaCl, 1 mM DTT, pH 7.4, 10 μM p300 in cell, 100 μM variant in syringe; for ΔH: 68% confidence interval in brackets. As for the experimental part: as §1
Error bars represent standard deviation of technical triplicates.
Figure S5 Heat of dilution of (a) GFP titrated to buffer, (b) GFP titrated to p300 and (c) Raw ITC (upper) data and fitted thermogram (lower) for the interaction of GFP-HIF-1α776-826 D823A variant (37 °C in 25 mM Tris-HCl, 150 mM NaCl, 1mM DTT, pH 7.4) using 10 µM p300 in the cell and 100 µM HIF-1α variant in the syringe. ITC experiments were carried out using a Microcal ITC200i instrument (Malvern). All proteins were dialysed against the same buffer prior to experiment, buffer or 10 µM p300 was present in the cell and titrated with 100 µM GFP-HIF-1α or GFP loaded into the syringe using 16 x 2 μL injections with 120 s spacing between the injections. Heats of GFP or GFP-HIF-1α dilution were subtracted from the measurement raw data. Error bars represent the estimated integration errors. […]
Isothermal titration calorimetry
Prior to ITC measurement p300 CH1 was dialysed or run on S75 column in the buffer used for titration, and the same buffer was used to dissolve the pure peptides. Experiments with […]
MicroCal iTC200 instrument with 10 µM protein in the cell and 100 µM ligand in the syringe at 37°C, using 2 µl injections and 120 or 180 s spacing between injections. Experiments with the […]
instrument using 3-5 µM protein in the cell and 40-60 µM ligand in the syringe at 35°C, using 5 µl injections and 180 s spacing between injections, for 40 injections. Titrations were performed in 40 mM Na-phosphate, pH 7.5 100 mM NaCl, 1 mM DTT buffer except for GFP-HIF-1α and variants for which 25 mM Tris-HCl, 150 mM NaCl, 1mM DTT, pH 7.4 buffer was used. Data were analysed using NITPIC3 and fitted using SEDPHAT4 to a single binding site model (fixed 1:1 stoichiometry), with baseline and incompetent protein fraction as adjustable parameters. 68 % confidence intervals for the fitted values were determined using the automatic confidence interval search implemented in SEDPHAT. Figures were prepared using […]

Experiment [3] concerns the target T2, p300 CH1 domain (residues 330–420) (UniProt Q09472 330-420).
T2 construct: p300 CH1 domain, residues 330–420; The cleavage of GST is said for the anisotropy control; also called p300 with the GST tag cleaved; source: recombinantly expressed as a fusion protein with GST, GST tag cleaved
Put plainly: ITC; peptide in the syringe, p300 in the cell (Fig. 4: 5 μM protein, 60 μM ligand); 40 mM sodium phosphate, pH 7.5, 100 mM NaCl, 1 mM DTT, 35 °C; single-site model, fixed 1:1 stoichiometry. Conditions: both partners purified. In general terms: In ITC the heat of successive injections is recorded.

For experiment [4], the target named is T2, p300 CH1 domain (residues 330–420). Put plainly: ITC; 10 μM p300 in the cell, 100 μM GFP-HIF-1α 776–826 variant in the syringe; 37 °C; 25 mM Tris–HCl, 150 mM NaCl, 1 mM DTT, pH 7.4; fixed 1:1 stoichiometry. Conditions: both partners purified.
The target in experiment [5] is GST-tagged p300 CH1 domain (residues 330–420) (UniProt Q09472). Description: fluorescence polarisation; fluorescence anisotropy by the fluorescence of GFP; GFP-HIF-1α 776–826 variants with GST-p300; 25 mM Tris–HCl, 150 mM NaCl, 1 mM DTT, pH 7.4; 1:1 model, each p300 site of the GST dimer taken as independent. (Polarisation of emitted light reports the rotation of a fluorescent probe.)

Here are results for 11 molecules from article PMC9092470, “Understanding p300-transcription factor interactions using sequence variation and hybridization†” (RSC Chemical Biology, 2022).

No end group written: not given here.

T1 sequence (Q09472 330-420): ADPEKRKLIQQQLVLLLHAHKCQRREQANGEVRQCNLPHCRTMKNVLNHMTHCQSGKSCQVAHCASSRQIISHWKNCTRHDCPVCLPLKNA
T2 sequence (Q09472 330-420): as above
GST-p300 (p300 CH1 domain, residues 330–420), sequence (Q09472 330-420): as above

Take “D823A: GFP-HIF-1α776–826 C-TAD single alanine variant D823A ({GFP}-SDLACRLLGQSMDESGLPQLTSYDCEVNAPIQGSRNLLQGEELLRALAQVN; cysteine pairing not given here)”: binding in experiment [1] was characterised by a dissociation constant (Kd) of 192 ± 17 nM. In experiment [2], this molecule showed a ΔS of −12.2 cal mol^−1 K^−1 and a ΔH of -13.0 kcal/mol.

Take “E801A: GFP-HIF-1α776–826 C-TAD single alanine variant E801A ({GFP}-SDLACRLLGQSMDESGLPQLTSYDCAVNAPIQGSRNLLQGEELLRALDQVN; cysteine pairing not given here)”: the Kd (commonly the concentration at which binding is half-saturated) in experiment [1] was 227 ± 78 nM. In addition, in experiment [2], the ΔS is listed as −9.5 cal mol^−1 K^−1 and the ΔH was -12.2 kcal/mol.

With “HIF-1α L792A: GFP-HIF-1α776–826 C-TAD single alanine variant L792A ({GFP}-SDLACRLLGQSMDESGAPQLTSYDCEVNAPIQGSRNLLQGEELLRALDQVN; cysteine pairing not given here)”, in experiment [2], the ΔS was −14.5 ^a cal mol^−1 K^−1 and the ΔH is recorded as −13.6 ^a (−13.9, −13.2) kcal mol^−1.

In turn, “V825A: GFP-HIF-1α776–826 C-TAD single alanine variant V825A ({GFP}-SDLACRLLGQSMDESGLPQLTSYDCEVNAPIQGSRNLLQGEELLRALDQAN; cysteine pairing not given here)” displayed a Kd in experiment [1] of 198 ± 37 nM.

B1: CITIF, HIF-1α-CITED2 hybrid sequence, chemically synthesized peptide (peptide)
chain: Ac-DEEVLMSLVIEMGLDRIKELPQLTSYDCEVNAPIQGSRNLLQGEELLRALDQVN-NH2
In turn, B1 showed a dH in experiment [3] of -22.5 kcal/mol.

B2: HIF-1α 786–826, chemically synthesized peptide (peptide, UniProt Q16665 786-826, looked up)
peptide: Ac-SMDESGLPQLTSYDCEVNAPIQGSRNLLQGEELLRALDQVN-NH2
notes: source: synthetic peptide (chemical synthesis, see ESI)
In experiment [3], B2 showed a dH of -25.8 kcal/mol.

B3: HIF-1α 776–826, chemically synthesized peptide (peptide, UniProt Q16665 776-826, looked up)
peptide: Ac-SDLACRLLGQSMDESGLPQLTSYDCEVNAPIQGSRNLLQGEELLRALDQVN-NH2
modifications: cysteine pairing not given here
notes: as for B2
In experiment [3], B3 came in with a Kd of 52.2 nM and a dH of -22.9 kcal/mol.

B4: GFP-tagged wt HIF-1α 776–826 C-TAD (domain or fragment, UniProt Q16665 776-826, looked up)
chain: SDLACRLLGQSMDESGLPQLTSYDCEVNAPIQGSRNLLQGEELLRALDQVN
notes: source: recombinantly expressed as a fusion protein with GFP
In experiment [4], B4 returned a Kd of 86 nM and a dH of -17.3 kcal/mol. In experiment [5], this molecule gave a Kd of 55 nM.

B5: GFP-HIF-1α 776–826 E801A (domain or fragment, UniProt Q16665 776-826, looked up)
chain: SDLACRLLGQSMDESGLPQLTSYDCAVNAPIQGSRNLLQGEELLRALDQVN
notes: As m3 with the stated change; also called HIF-1α E801A; source: recombinantly expressed as a fusion protein with GFP
B5: the Kd in experiment [4] was found to be 359 nM; in experiment [5], 227 nM. In experiment [4], the dH is -12.2 kcal/mol.

B6: GFP-HIF-1α 776–826 L792A (domain or fragment, UniProt Q16665 776-826, looked up)
chain: SDLACRLLGQSMDESGAPQLTSYDCEVNAPIQGSRNLLQGEELLRALDQVN
notes: As m3 with the stated change; measured by ITC only; also called HIF-1α L792A; source: recombinantly expressed as a fusion protein with GFP
Consider B6, for which, in experiment [4], the Kd came to 386 nM and the dH was -13.6 kcal/mol.

B7: GFP-HIF-1α 776–826 D823A (domain or fragment, UniProt Q16665 776-826, looked up)
chain: SDLACRLLGQSMDESGLPQLTSYDCEVNAPIQGSRNLLQGEELLRALAQVN
notes: As m3 with the stated change; also called HIF-1α D823A; source: recombinantly expressed as a fusion protein with GFP
As for B7, in experiment [4], the Kd worked out at 369 nM and the dH was -13 kcal/mol. Besides, in experiment [5], the Kd turned out to be 192 nM.
